Test system: Escherichia coli TOP10
Experiment: shrunken log2 fold change of peptide-encoding DNA abundance (4.5 h post-induction vs induction); higher = less antimicrobial activity (less host growth inhibition)
Conditions: time post-induction: 4.5 h; library: site-saturation at positions 5, 18, 19, 20
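Further: peptides expressed intracellularly from a pBAD plasmid library in pooled LB shake-flask culture, induced with 0.3% L-arabinose, DNA abundance read by NGS, three biological replicates, DESeq2 with apeglm shrinkage.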

| Sequence | shrunken log2 fold change |
| --- | --- |
| RRIRYRPPRLPRPRPRPECIPRP | -0.00318 |
| RRIRYRPPRLPRPRPRPECSPRP | -0.15 |
| RRIRYRPPRLPRPRPRPEDGPRP | -0.141 |
| RRIRYRPPRLPRPRPRPEFCPRP | -0.258 |
| RRIRYRPPRLPRPRPRPEGGPRP | 0.0214 |
| RRIRYRPPRLPRPRPRPEHFPRP | -0.0545 |
| RRIRYRPPRLPRPRPRPEHLPRP | -0.357 |
| RRIRYRPPRLPRPRPRPEHRPRP | 0.0623 |
| RRIRYRPPRLPRPRPRPEIIPRP | -0.0841 |
| RRIRYRPPRLPRPRPRPEKNPRP | -0.526 |
| RRIRYRPPRLPRPRPRPELCPRP | -0.403 |
| RRIRYRPPRLPRPRPRPEMNPRP | -0.0274 |
| RRIRYRPPRLPRPRPRPENAPRP | 0.0607 |
| RRIRYRPPRLPRPRPRPENGPRP | 0.0143 |
| RRIRYRPPRLPRPRPRPENRPRP | 0.0112 |
| RRIRYRPPRLPRPRPRPEPIPRP | -0.103 |
| RRIRYRPPRLPRPRPRPEQMPRP | 0.195 |
| RRIRYRPPRLPRPRPRPERRPRP | 0.197 |
| RRIRYRPPRLPRPRPRPETHPRP | -0.863 |
| RRIRYRPPRLPRPRPRPEWTPRP | -0.247 |
| RRIRYRPPRLPRPRPRPEYEPRP | -0.0176 |
| RRIRYRPPRLPRPRPRPEYVPRP | -0.0327 |
| RRIRYRPPRLPRPRPRPFCEPRP | -0.456 |
| RRIRYRPPRLPRPRPRPFDHPRP | -0.0332 |
| RRIRYRPPRLPRPRPRPFFWPRP | -0.03 |

| Sequence | shrunken log2 fold change |
| --- | --- |
| RRIRYRPPRLPRPRPRPFHKPRP | -0.0655 |
| RRIRYRPPRLPRPRPRPFINPRP | -1.17 |
| RRIRYRPPRLPRPRPRPFKDPRP | -0.0864 |
| RRIRYRPPRLPRPRPRPFLCPRP | -1.19 |
| RRIRYRPPRLPRPRPRPFLIPRP | -1.15 |
| RRIRYRPPRLPRPRPRPFMPPRP | -0.323 |
| RRIRYRPPRLPRPRPRPFNGPRP | -0.0276 |
| RRIRYRPPRLPRPRPRPFQNPRP | -0.0769 |
| RRIRYRPPRLPRPRPRPFRKPRP | -0.00664 |
| RRIRYRPPRLPRPRPRPFRYPRP | -0.315 |
| RRIRYRPPRLPRPRPRPFSSPRP | 0.015 |
| RRIRYRPPRLPRPRPRPFVQPRP | -0.0236 |
| RRIRYRPPRLPRPRPRPFWQPRP | -0.122 |
| RRIRYRPPRLPRPRPRPFYCPRP | -1.27 |
| RRIRYRPPRLPRPRPRPFYHPRP | -0.635 |
| RRIRYRPPRLPRPRPRPFYMPRP | -0.258 |
| RRIRYRPPRLPRPRPRPGATPRP | 0.128 |
| RRIRYRPPRLPRPRPRPGAYPRP | -0.292 |
| RRIRYRPPRLPRPRPRPGESPRP | 0.224 |
| RRIRYRPPRLPRPRPRPGIQPRP | -0.0445 |
| RRIRYRPPRLPRPRPRPGKMPRP | 0.00758 |
| RRIRYRPPRLPRPRPRPGKQPRP | -0.0708 |
| RRIRYRPPRLPRPRPRPGLTPRP | -0.21 |
| RRIRYRPPRLPRPRPRPGMAPRP | -0.262 |
| RRIRYRPPRLPRPRPRPGNRPRP | 0.0823 |

| Sequence | shrunken log2 fold change |
| --- | --- |
| RRIRYRPPRLPRPRPRPGPMPRP | -0.148 |
| RRIRYRPPRLPRPRPRPGQNPRP | -0.01 |
| RRIRYRPPRLPRPRPRPGTMPRP | -0.139 |
| RRIRYRPPRLPRPRPRPGVEPRP | 0.0346 |
| RRIRYRPPRLPRPRPRPGVSPRP | 0.0695 |
| RRIRYRPPRLPRPRPRPGYDPRP | -0.205 |
| RRIRYRPPRLPRPRPRPGYHPRP | -0.00992 |
| RRIRYRPPRLPRPRPRPHAAPRP | -0.211 |
| RRIRYRPPRLPRPRPRPHADPRP | -0.0359 |
| RRIRYRPPRLPRPRPRPHCAPRP | -0.544 |
| RRIRYRPPRLPRPRPRPHCKPRP | -0.11 |
| RRIRYRPPRLPRPRPRPHCRPRP | -0.372 |
| RRIRYRPPRLPRPRPRPHEKPRP | -0.00489 |
| RRIRYRPPRLPRPRPRPHFEPRP | -0.115 |
| RRIRYRPPRLPRPRPRPHFPPRP | -0.00195 |
| RRIRYRPPRLPRPRPRPHGPPRP | -0.239 |
| RRIRYRPPRLPRPRPRPHIDPRP | -1.95 |
| RRIRYRPPRLPRPRPRPHKGPRP | -0.29 |
| RRIRYRPPRLPRPRPRPHKRPRP | -0.163 |
| RRIRYRPPRLPRPRPRPHLCPRP | -0.0639 |
| RRIRYRPPRLPRPRPRPHLGPRP | 0.0406 |
| RRIRYRPPRLPRPRPRPHMMPRP | -1.6 |
| RRIRYRPPRLPRPRPRPHNWPRP | -0.926 |
| RRIRYRPPRLPRPRPRPHPFPRP | -1.3 |
| RRIRYRPPRLPRPRPRPHPKPRP | -0.0588 |

| Sequence | shrunken log2 fold change |
| --- | --- |
| RRIRYRPPRLPRPRPRPHPLPRP | -0.719 |
| RRIRYRPPRLPRPRPRPHPQPRP | -0.0957 |
| RRIRYRPPRLPRPRPRPHQCPRP | -0.0856 |
| RRIRYRPPRLPRPRPRPHQRPRP | -0.0288 |
| RRIRYRPPRLPRPRPRPHQWPRP | -0.649 |
| RRIRYRPPRLPRPRPRPHREPRP | -0.00804 |
| RRIRYRPPRLPRPRPRPHRHPRP | -0.615 |
| RRIRYRPPRLPRPRPRPHRNPRP | -0.745 |
| RRIRYRPPRLPRPRPRPHRTPRP | -0.527 |
| RRIRYRPPRLPRPRPRPHTEPRP | -0.0196 |
| RRIRYRPPRLPRPRPRPIALPRP | -0.0389 |
| RRIRYRPPRLPRPRPRPICNPRP | -0.332 |
| RRIRYRPPRLPRPRPRPIDYPRP | -0.0298 |
| RRIRYRPPRLPRPRPRPIGKPRP | 0.0104 |
| RRIRYRPPRLPRPRPRPIHAPRP | -1.49 |
| RRIRYRPPRLPRPRPRPIHFPRP | -0.679 |
| RRIRYRPPRLPRPRPRPIKYPRP | -0.0893 |
| RRIRYRPPRLPRPRPRPIMEPRP | -0.0134 |
| RRIRYRPPRLPRPRPRPINLPRP | -0.145 |
| RRIRYRPPRLPRPRPRPINTPRP | -0.274 |
| RRIRYRPPRLPRPRPRPIPAPRP | -0.0717 |
| RRIRYRPPRLPRPRPRPIQKPRP | -0.00992 |
| RRIRYRPPRLPRPRPRPIQLPRP | -0.0605 |
| RRIRYRPPRLPRPRPRPIQYPRP | -0.18 |
| RRIRYRPPRLPRPRPRPISKPRP | -0.562 |

| Sequence | shrunken log2 fold change |
| --- | --- |
| RRIRYRPPRLPRPRPRPISNPRP | -0.191 |
| RRIRYRPPRLPRPRPRPITYPRP | -0.0505 |
| RRIRYRPPRLPRPRPRPIVTPRP | -0.015 |
| RRIRYRPPRLPRPRPRPIWSPRP | -0.0646 |
| RRIRYRPPRLPRPRPRPIWTPRP | 0.066 |
| RRIRYRPPRLPRPRPRPIYRPRP | -0.641 |
| RRIRYRPPRLPRPRPRPKAGPRP | -0.118 |
| RRIRYRPPRLPRPRPRPKCCPRP | 0.013 |
| RRIRYRPPRLPRPRPRPKDKPRP | -0.536 |
| RRIRYRPPRLPRPRPRPKDYPRP | -0.787 |
| RRIRYRPPRLPRPRPRPKEEPRP | -0.0656 |
| RRIRYRPPRLPRPRPRPKGGPRP | 0.0198 |
| RRIRYRPPRLPRPRPRPKGPPRP | -0.0132 |
| RRIRYRPPRLPRPRPRPKGYPRP | -0.0889 |
| RRIRYRPPRLPRPRPRPKHHPRP | -0.986 |
| RRIRYRPPRLPRPRPRPKHWPRP | 0.266 |
| RRIRYRPPRLPRPRPRPKIIPRP | -1.21 |
| RRIRYRPPRLPRPRPRPKKFPRP | -0.0477 |
| RRIRYRPPRLPRPRPRPKKVPRP | -0.141 |
| RRIRYRPPRLPRPRPRPKLPPRP | 0.108 |
| RRIRYRPPRLPRPRPRPKPYPRP | -0.698 |
| RRIRYRPPRLPRPRPRPKQRPRP | -0.106 |
| RRIRYRPPRLPRPRPRPKRWPRP | 0.165 |
| RRIRYRPPRLPRPRPRPKSLPRP | -0.204 |
| RRIRYRPPRLPRPRPRPKVWPRP | 0.221 |

| Sequence | shrunken log2 fold change |
| --- | --- |
| RRIRYRPPRLPRPRPRPKWFPRP | -0.87 |
| RRIRYRPPRLPRPRPRPLACPRP | -0.319 |
| RRIRYRPPRLPRPRPRPLAMPRP | -0.311 |
| RRIRYRPPRLPRPRPRPLAPPRP | 0.107 |
| RRIRYRPPRLPRPRPRPLASPRP | -0.556 |
| RRIRYRPPRLPRPRPRPLCLPRP | -0.341 |
| RRIRYRPPRLPRPRPRPLFNPRP | -1.24 |
| RRIRYRPPRLPRPRPRPLHHPRP | -1.14 |
| RRIRYRPPRLPRPRPRPLHKPRP | 0.0382 |
| RRIRYRPPRLPRPRPRPLIGPRP | -0.478 |
| RRIRYRPPRLPRPRPRPLMQPRP | -0.283 |
| RRIRYRPPRLPRPRPRPLNFPRP | -1.01 |
| RRIRYRPPRLPRPRPRPLNPPRP | 0.0535 |
| RRIRYRPPRLPRPRPRPLPFPRP | -0.78 |
| RRIRYRPPRLPRPRPRPLQAPRP | -0.057 |
| RRIRYRPPRLPRPRPRPLQRPRP | -0.208 |
| RRIRYRPPRLPRPRPRPLRAPRP | 0.669 |
| RRIRYRPPRLPRPRPRPLRKPRP | -0.258 |
| RRIRYRPPRLPRPRPRPLSEPRP | -0.215 |
| RRIRYRPPRLPRPRPRPLTAPRP | -0.492 |
| RRIRYRPPRLPRPRPRPLTRPRP | -0.0623 |
| RRIRYRPPRLPRPRPRPLWAPRP | -0.25 |
| RRIRYRPPRLPRPRPRPLWNPRP | -0.471 |
| RRIRYRPPRLPRPRPRPMCNPRP | -1.82 |
| RRIRYRPPRLPRPRPRPMDAPRP | -0.00112 |

From the supplement of paper PMC9112550, “Optimization of the antimicrobial peptide Bac7 by deep mutational scanning” (BMC Biology, 2022)
